# US20230190870A1, “Method for Treating Lysosomal Storage Diseases with Histatin Peptides” (THE BOARD OF TRUSTEES OF THE UNIVERSITY OF ILLINOIS, priority 2020, published 2023)
# Square brackets hold non-standard residues; d marks the D form. Ends that are not written are not given here. pS = N[C@@H](COP(=O)(O)O)C(=O)O
# T1: Synthetic TMEM97 (108-176) peptide
# T1 construct: Synthetic peptide; also called full C-terminal synthetic TMEM97
# T1 peptide: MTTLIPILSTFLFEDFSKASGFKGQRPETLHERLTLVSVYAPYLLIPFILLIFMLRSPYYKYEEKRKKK
# T2: Synthetic TMEM97 (108-143) peptide
# T2 construct: Synthetic peptide; also called (predicted) luminal segment
# T2 peptide: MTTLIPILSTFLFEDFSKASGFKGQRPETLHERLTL
# T3: Synthetic TMEM97 (144-176) peptide
# T3 construct: Synthetic peptide; also called (predicted) cytoplasmic segment
# T3 peptide: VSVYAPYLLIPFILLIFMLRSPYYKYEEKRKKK
# Legend:
# [1] = molecular target: T4, TMEM97 (S2R) containing HEK293T membranes (Homo sapiens, UniProt Q5BJF2); assay: Radioligand binding/competition assay with [3H]-DTG (UNC PDSP); settings: secondary radioligand binding assay; hot ligand [3H]-DTG
# T4 construct: expressed in transfected cells; host or cells: HEK293T (transient overexpression; membranes prepared by UNC PDSP)
# human corneal epithelium = assay: Hyperosmolarity-induced apoptotic signals (Caspase 3/7); assay type: cell-based; settings: 450 mOsm
# From the text: (§1) Apoptosis. […] BAK and hOsm are standard inducers of corneal epithelial and neuronal cell death and toxicity, phenomena which are associated with ocular surface pain and chronic pain syndromes.
# [2] = tested on: Human corneal epithelial cells; assay: Cell viability of BAK-treated human corneal epithelial cells; assay type: cell-based; settings: benzalkonium chloride (BAK) treatment
# From the text: as §1
# [3] = tested on: Human corneal epithelial cells; assay: Calcium Green-2 calcium signaling in human corneal epithelial cells; assay type: cell-based
# Procedure: Calcium Signaling. Human corneal epithelial cells were treated with Hst1 or Hst5, stained with Calcium Green-2, and relative fluorescence intensity was monitored at 1, 2 and 4 hours. […] This normalization of cellular calcium levels seen after toxicity from benzalkonium chloride treatment is analogous to toxic effects seen in chronic pain and other conditions. As such, histatin peptides may of use in the amelioration of chronic pain.
# Candida albicans = settings: cited from earlier work
# [4] = molecular target: T5, Recombinant full-length TMEM97 (from HEK293 cells, OriGene) (UniProt Q5BJF2 1-176); assay: SPR, TMEM97 immobilized on CM5 chip
# T5 construct: Bought protein, said to be full-length; Immobilized on a CM5 chip; also called MAC30
# [5] = molecular target: T1, Synthetic TMEM97 (108-176) peptide; assay: SPR
# [6] = molecular target: T2, Synthetic TMEM97 (108-143) peptide; assay: SPR
# [7] = molecular target: T3, Synthetic TMEM97 (144-176) peptide; assay: SPR
# [8] = molecular target: T6, GST-TMEM97 (108-176), recombinant from wheat germ (Abnova) (UniProt Q5BJF2 108-176); assay: SPR
# T6 construct: not shown: GST tag
# [9] = molecular target: T6, GST-TMEM97 (108-176), recombinant from …; assay: SPR, GST-TMEM97 (108-176) immobilized on CM5 chip, Hst1 as analyte; GST-tagged wheat-germ TMEM97 (108-176); SPR
# [10] = molecular target: T3, Synthetic TMEM97 (144-176) peptide; assay: SPR, synthetic TMEM97 (144-176) immobilized, Hst1 as analyte; SPR; synthetic TMEM97 (144-176)
# [11] = molecular target: T1, Synthetic TMEM97 (108-176) peptide; assay: SPR, synthetic TMEM97 (108-176) immobilized, Hst1 as analyte; SPR; synthetic TMEM97 (108-176)
# [12] = molecular target: T1, Synthetic TMEM97 (108-176) peptide; assay: ITC, Hst1 titrated into synthetic TMEM97 (108-176)
# [13] = molecular target: T3, Synthetic TMEM97 (144-176) peptide; assay: ITC, Hst1 titrated into the C-terminal TMEM97 peptide (taken as 144-176)
# [14] = molecular target: T3, Synthetic TMEM97 (144-176) peptide; assay: ITC, Hst1 titrated into the C-terminal TMEM97 peptide (taken as 144-176); ITC, not SPR; C-terminal fragment taken as 144-176
# [15] = molecular target: T1, Synthetic TMEM97 (108-176) peptide; assay: ITC, Hst1 titrated into synthetic TMEM97 (108-176); ITC, not SPR; TMEM97 (108-176)
# T4 sequence (Q5BJF2 whole entry, species assumed): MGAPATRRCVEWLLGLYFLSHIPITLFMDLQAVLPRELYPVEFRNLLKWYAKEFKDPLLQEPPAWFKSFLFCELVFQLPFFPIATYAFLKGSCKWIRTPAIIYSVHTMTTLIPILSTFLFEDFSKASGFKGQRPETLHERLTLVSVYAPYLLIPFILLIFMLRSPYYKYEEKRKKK
molecule,measurement,setting,value
CC(C)C[C@H](NC(=O)[C@H](Cc1ccc(O)cc1)NC(=O)[C@H](CC(N)=O)NC(=O)[C@H](CO)NC(=O)[C@H](CCCNC(=N)N)NC(=O)[C@H](Cc1ccc(O)cc1)NC(=O)CNC(=O)[C@H](CCCNC(=N)N)NC(=O)[C@H](Cc1c[nH]cn1)NC(=O)[C@H](CO)NC(=O)[C@H](Cc1c[nH]cn1)NC(=O)[C@H](Cc1c[nH]cn1)NC(=O)[C@H](CCCCN)NC(=O)[C@H](CCC(=O)O)NC(=O)[C@H](Cc1c[nH]cn1)NC(=O)[C@H](Cc1ccccc1)NC(=O)[C@H](CCCCN)NC(=O)[C@H](CCCNC(=N)N)NC(=O)[C@H](CCCCN)NC(=O)[C@H](Cc1ccc(O)cc1)NC(=O)CNC(=O)[C@H](Cc1c[nH]cn1)NC(=O)[C@H](Cc1c[nH]cn1)NC(=O)[C@H](CCCNC(=N)N)NC(=O)[C@H](CCCCN)NC(=O)[C@H](C)NC(=O)[C@H](Cc1c[nH]cn1)NC(=O)[C@H](CO)NC(=O)[C@@H](N)CC(=O)O)C(=O)N[C@@H](Cc1ccc(O)cc1)C(=O)N[C@@H](CC(=O)O)C(=O)N[C@@H](CC(N)=O)C(=O)O [Hst3],Ki,[1],1090 nM
C[C@H](NC(=O)[C@H](Cc1c[nH]cn1)NC(=O)[C@H](CO)NC(=O)[C@@H](N)CC(=O)O)C(=O)N[C@@H](CCCCN)C(=O)N[C@@H](CCCNC(=N)N)C(=O)N[C@@H](Cc1c[nH]cn1)C(=O)N[C@@H](Cc1c[nH]cn1)C(=O)NCC(=O)N[C@@H](Cc1ccc(O)cc1)C(=O)N[C@@H](CCCCN)C(=O)N[C@@H](CCCNC(=N)N)C(=O)N[C@@H](CCCCN)C(=O)N[C@@H](Cc1ccccc1)C(=O)N[C@@H](Cc1c[nH]cn1)C(=O)N[C@@H](CCC(=O)O)C(=O)N[C@@H](CCCCN)C(=O)N[C@@H](Cc1c[nH]cn1)C(=O)N[C@@H](Cc1c[nH]cn1)C(=O)N[C@@H](CO)C(=O)N[C@@H](Cc1c[nH]cn1)C(=O)N[C@@H](CCCNC(=N)N)C(=O)NCC(=O)N[C@@H](Cc1ccc(O)cc1)C(=O)O [Hst5],hyperosmolarity-induced apoptotic signals (Caspase 3/7),human corneal epithelium,abrogates the effects of toxic hyperosmolarity
same,BAK-induced loss of cell viability,[2],abrogated
same,Ki,[1],582 nM
same,calcium signaling (relative fluorescence intensity),"[3]; 1, 2 and 4 hours",increases calcium signaling
same,elevated calcium levels after benzalkonium chloride,[3]; cells treated with 0.001% BAK,reduced elevated calcium levels
"AKRHHGYKRKFH [Histatin P-113, histatin-derived antimicrobial peptide]",fungicidal activity,Candida albicans,fungicidal activity
HYHKFHRYYDPGSNLYKEHNHGFHHGYKDEFRRE[pS]RDS (Synthetic scrambled control of Hst1; also called scrambled peptide control version of Hst1) [Hst1 scrambled peptide (Hst1SP)],binding result,[4],no binding
"DSHEKRHHGYRRKFHEKHHSHREFPF (not fully specified (residue 2); ends and bridges not checked, Fragment of Hst1) [Hst1(1-26)]",Kd,[5],1300 nM
same,binding result,[6],no binding
same,Kd,[7],1700 nM
same,Kd,[8],2100 nM
"DSHEKRHHGYRRKF (not fully specified (residue 2); ends and bridges not checked, Fragment of Hst1) [Hst1(1-14)]",binding result,[5],no binding
same,binding result,[6],no binding
same,binding result,[7],no binding
D[pS]HEKRHHGYRRKFHEKHHSHREFPFYGDYGSNYLYDN (Synthetic linear peptide made by Fmoc solid-phase synthesis; also called Hst1(1-38); H1) [Histatin 1 (Hst1)],Kd,[9],1600 nM
same,Kd,[10],2700 nM
same,Kd,[11],2800 nM
same,ΔH,[12],-4.9 kcal/mol
same,ΔS,[12],11.6 cal/mol K
same,ΔH,[13],-790 kcal/mol
same,ΔS,[13],-2280 cal/mol K
same,Kd,[5],2400 nM
same,binding result,[6],no binding
same,Kd,[7],2400 nM
same,Kd,[8],1500 nM
same,Kd,[14],460 nM
same,Kd,[15],890 nM
